Patent US20030124590A1, “Carbohydrate response element binding protein and uses thereof” (priority 2001, published 2003)
Blank lines part the entries; values can stand above or below the compound they belong to. No end group written: not given here.

Columns and labels:
L-PK gene [1] = experiment: Glucose-induced L-PK transcription (luciferase) in ChREBP overexpressed hepatocytes with fatty acids or AICAR; assay type: cell-based, rat; conditions: 27.5 mM glucose
Experimental: After a six h attachment period, hepatocytes were transfected using synthetic liposome (Lipofectamine 2000; Life Technologies) in Opti-MEM I reduced serum medium as described (Yamashita et al. Proc. Natl. Acad. Sci. USA 98, 9116-9121) and incubated for 12 h. As a control, hepatocytes were exposed to synthetic liposome in the same manner as each experimental group. […] The source of albumin for all studies was essentially fatty acid-free bovine serum albumin. Transfected cells were cultured for 12 h in culture medium containing 27.5 mM glucose plus 150 μM albumin-bound specific fatty acids or AICAR, washed twice with 2 ml Ca2+- and Mg2+-free phosphate-buffered saline, and lysed with Passive lysis buffer (Promega). Firefly luciferase and renilla (sea pansy) luciferase activities were measured sequentially using a Dual-Luciferase Reporter assay system (Promega) and a model TD-20E Luminometer (Turner Design, Sunnyvale, Calif.). After measuring the firefly luciferase signal and the renilla luciferase signal, the index of relative luciferase activity, indicating L-PK transcription activity, was calculated according to manufacturer's instructions (Promega).

L-PK gene [2] = experiment: L-PK promoter luciferase reporter in ChREBP-transfected primary hepatocytes with kinase/phosphatase inhibitors or db-cAMP; conditions: for transcriptional activity of the L-PK gene in ChREBP-overexpressed hepatocytes: 5.5 and 27.5 mM glucose, 12 h, 10 μM H-89, 500 nM cantharidic acid, 5 μM KN-62, 30 μM PD98059, 50 μM Genistein
Experimental: Primary hepatocytes were prepared from male Sprague-Dawley rats using the collagenase (Life Technologies, Inc.) perfusion method (Berry and Friend (1969) J Cell Bio […], 506-520) and plated in collagen-coated six-well tissue culture plates (Primaria Falcon, Franklin Lakes, N.J.) at a density of 1×10^6 cells/well in glucose-free Dulbecco's modified Eagle's medium (Life Technologies, Inc.) supplemented with 100 nM dexamethasone, 10 nM insulin, 100 units/ml penicillin, 100 μg/ml streptomycin and 10% dialyzed fetal bovine serum (Life Technologies, Inc.). Following attachment, synthetic liposomes were used to transfect hepatocytes with 0.5 μg of the luciferase reporter plasmid and 0.1 μg of the internal control plasmid pRL-TK. After 14 h the media was replaced by Dulbecco's modified Eagle medium supplemented with 100 nM dexamethasone, 10 nM insulin, 10% Fetal Bovine Serum and either 10 mM lactate, 5.5 mM glucose or 27.5 mM glucose. The cells were incubated for an additional 12 h prior to determination of luciferase activity using the Dual-Luciferase Reporter Assay System (Promega).
Protein Kinase and Protein Phosphatase Inhibitors—Prior to exchange to 5.5 or 27.5 mM glucose medium, transfected primary culture hepatocytes were treated for 1 h with 10 μM H-89, 500 nM cantharidic acid (Calbiochem), 5 μM KN-62 (Calbiochem), 30 μM PD98059 (Calbiochem), 50 μM Genistein, or dimethylsulfoxide vehicle.
Rat primary cultured hepatocytes were transfected a plasmid comprising a gene encoding the wild type (WT)-ChREBP. H-89, cantharidic acid, or dimethylsulfoxide vehicle was added, and the cells were incubated in 5.5 mM (□) or 27.5 mM (▪) glucose for 12 h.
Rat primary cultured hepatocytes were transfected with wild type (WT)-ChREBP, S626A, S626D, T666A, or T666D. After transfection, the cells were incubated in 5.5 mM (□) or 27.5 mM (▪) glucose for 12 h. […] Rat primary cultured hepatocytes were transfected with wild type (WT)-ChREBP, S196A+S626A, or S196A+T666A. After transfection, cells were incubated under 5.5 mM (□) or 27.5 mM (▪) glucose, and cAMP was added both low and high glucose.

GFP-fused ChREBP = experiment: Subcellular localization of GFP-fused ChREBP in primary hepatocytes (confocal microscopy); assay type: cell-based, rat; conditions: 12 h
Experimental: Determination of Subcellular Localization of ChREBP—Subcellular localization of GFP-fused WT-ChREBP or its mutants was determined using a confocal laser scanning microscope (Bio Rad, Hercules, Calif.). In order to quantitate nuclear localization of ChREBP, for each condition, 100 transfected hepatocytes from 5 independent experiments were scored in a blinded fashion as to whether the GFP-fused ChREBP was predominantly nuclear or cytoplasmic. The identity of the nucleus was verified by comparative phase-contrast microscopy. B. Results
Rat primary cultured hepatocytes were transfected with a plasmid comprising a gene encoding the GFP-fused wild type-ChREBP or NLS domain deletion mutants. […] The values are expressed as mean±SE. *P<0.05 compared to that of wild type-ChREBP.

[3] = target: T1, nuclear Xu-5-P activated PPase (Rattus norvegicus, UniProt P63331); experiment: Protein phosphatase assay, nuclear Xu-5-P activated PPase of liver; assay type: biochemical; conditions: for inhibition of nuclear PPase (in words): 500 nM cantharidic acid, 300 nM deltamethrin; for Nuclear PPase activity, +Xu5P / Nuclear PPase activity, None: Mono Q purified, phosphorylated peptide as substrate; for Nuclear PPase activity, None: absence of Xu-5-P
T1 construct: from tissue; host or cells: rat liver nuclear extract, DEAE-cellulose then Mono Q
Experimental: Liver nuclear extracts were prepared as described in Example 1.
(§1) Synthetic peptides corresponding to amino acids #187-201 ([…] “P1” peptide) (SEQ ID NO:64), #556-573 ([…], “P4” peptide) (SEQ ID NO:65), and #655-674 ([…]; “P3” peptide) (SEQ ID NO:66), of ChREBP were prepared by the Peptide Synthesis Service of University of Texas Southwestern Medical Center. These peptides were phosphorylated by 10 U of PKA for 6 h at 30° C. P4 peptide corresponding to 556-573 ([…]) (SEQ ID NO:65), was phosphorylated by 10 U of AMPK for 5 h at 30° C. The reaction mixtures were passed through on a Dowex AG1X8 column (0.5 cm×5 cm) which had been equilibrated with 30% acetic acid to remove residual [^32P]-ATP. The labeled peptides in the pass through fraction were lyophilized.
(§2) Protein phosphatase activity was determined by the method of Deana et al (Deana et al. (1990) Biochem, Biophys. Acta. 1051: 199-202). The reaction mixture contained in a final volume of 50 μ1,20 mM MOPS, pH 7.0, 1 mM DTT, 25 μg of BSA, and ^32P-labeled substrate for 15 min at 30° C. The reaction was terminated by the addition of 10% trichloroacetic acid. Phosphate released was converted to a phosphomolybdic complex followed by organic solvent (isobutyl alcohol:heptane, 1:1) extraction of the complex. The reaction mixture was mixed thoroughly and centrifuged. An aliquot of the top layer was then added to 5 ml scintillation fluid and counted. One unit of protein phosphatase is defined as that amount which catalyzes the release of 1.0 μmol of ^32P/min at 30° C.
(§3) These peptides were assayed with Mono Q purified cytosolic and nuclear PPases in the presence and absence of 50 μM Xu-5-P.

[4] = target: T2, cytosolic Xu-5-P activated PPase (Rattus norvegicus, UniProt P63331); experiment: Protein phosphatase assay, cytosolic Xu-5-P activated PPase of liver; assay type: biochemical; conditions: for inhibition of cytosolic Xu-5-P activated PPase (in words): okadaic acid 10 nM (absence and presence of Xu-5-P), cantharidic acid 500 nM, deltamethrin 300 nM; for Cytosol. PPase activity, +Xu5P / Cytosol. PPase activity, None: Mono Q purified, phosphorylated peptide as substrate; for Cytosol. PPase activity, None: absence of Xu-5-P
T2 construct: from tissue; host or cells: rat liver cytosolic extract, DEAE-cellulose then Mono Q
Experimental: Liver was homogenized in a motor-driven Potter-Elvehjem homogenizer in 1 volume of extraction buffer containing 10 mM Hepes (pH 7.9), 10 mM KCl, 0.1 mM EDTA, 0.74 mM spermidine, 0.25 M sucrose, 50 mM imidazole, 1 mM dithiothreitol (DTT), 4 mM phenylmethanesulfonyl fluoride, and 1 mM benzamidine, and the extract was centrifuged at 10,000×g for 30 min.
as §1, §2, §3

cultured hepatocytes = experiment: AMP, ADP, ATP assays in cultured hepatocytes; assay type: cell-based, rat; conditions: hepatocytes 12 h with 150 µM fatty acid, mean±S.E., n=4
Experimental: Hepatocytes were scraped and collected directly into 0.5 ml of ice-cold 6% (v/v) HClO4. The concentrations of ADP and ATP were determined enzymatically in the acid-extract with methods described (Kawaguchi, T., Veech, R. L., and Uyeda, K. (2001) J. Biol. Chem. 276, 28554-28561), and the cytosolic AMP was calculated by the method of Veech et al. (Veech, R. L., Lawson, J. W., Cornell, N. W., and Krebs, H. A. (1979) J. Biol. Chem. 254, 6538-6547).
Values are expressed as mean±S.E. (n=4).

[5] = target: ChREBP (Carbohydrate Response Element Binding Protein) from rat liver (rat) (UniProt Q8VIP2); experiment: cell-based or functional assay
[6] = tested on: T3, P3 peptide of ChREBP (amino acids #655-674), phosphorylated by PKA
T3 sequence: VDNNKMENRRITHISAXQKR

[7] = tested on: T4, P1 peptide of ChREBP (amino acids #187-201), phosphorylated by PKA
T4 sequence: YYKKRLRKSSREGDF

[8] = tested on: T5, P4 peptide of ChREBP (amino acids #556-573), phosphorylated by AMPK
T5 sequence: STVPSTLLRPPESPDAVP

[9] = Mono Q purified enzyme, 50 μM Xu-5-P

T1 sequence (P63331 whole entry): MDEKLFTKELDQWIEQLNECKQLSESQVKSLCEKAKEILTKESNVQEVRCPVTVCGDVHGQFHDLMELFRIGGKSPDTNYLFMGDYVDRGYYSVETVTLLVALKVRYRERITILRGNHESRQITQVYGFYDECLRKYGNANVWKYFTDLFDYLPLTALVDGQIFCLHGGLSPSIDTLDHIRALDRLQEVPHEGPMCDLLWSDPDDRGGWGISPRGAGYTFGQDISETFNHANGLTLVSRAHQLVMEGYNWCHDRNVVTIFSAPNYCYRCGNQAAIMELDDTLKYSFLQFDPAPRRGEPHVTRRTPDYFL
T1 sequence (P56932 whole entry partner): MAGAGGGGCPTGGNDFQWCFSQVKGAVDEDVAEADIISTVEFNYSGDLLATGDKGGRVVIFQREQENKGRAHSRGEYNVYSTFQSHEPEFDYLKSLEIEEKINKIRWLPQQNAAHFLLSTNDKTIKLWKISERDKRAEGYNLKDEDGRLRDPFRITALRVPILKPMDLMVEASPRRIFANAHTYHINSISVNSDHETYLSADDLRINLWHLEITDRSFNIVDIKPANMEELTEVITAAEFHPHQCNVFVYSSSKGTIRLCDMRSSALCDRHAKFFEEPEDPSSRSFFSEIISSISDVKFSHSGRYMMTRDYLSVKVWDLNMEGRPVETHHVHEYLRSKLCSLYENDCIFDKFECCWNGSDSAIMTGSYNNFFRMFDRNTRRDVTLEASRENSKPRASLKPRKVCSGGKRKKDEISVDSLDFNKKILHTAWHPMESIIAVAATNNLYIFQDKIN
T1 sequence (Q5XI34 1-589 partner): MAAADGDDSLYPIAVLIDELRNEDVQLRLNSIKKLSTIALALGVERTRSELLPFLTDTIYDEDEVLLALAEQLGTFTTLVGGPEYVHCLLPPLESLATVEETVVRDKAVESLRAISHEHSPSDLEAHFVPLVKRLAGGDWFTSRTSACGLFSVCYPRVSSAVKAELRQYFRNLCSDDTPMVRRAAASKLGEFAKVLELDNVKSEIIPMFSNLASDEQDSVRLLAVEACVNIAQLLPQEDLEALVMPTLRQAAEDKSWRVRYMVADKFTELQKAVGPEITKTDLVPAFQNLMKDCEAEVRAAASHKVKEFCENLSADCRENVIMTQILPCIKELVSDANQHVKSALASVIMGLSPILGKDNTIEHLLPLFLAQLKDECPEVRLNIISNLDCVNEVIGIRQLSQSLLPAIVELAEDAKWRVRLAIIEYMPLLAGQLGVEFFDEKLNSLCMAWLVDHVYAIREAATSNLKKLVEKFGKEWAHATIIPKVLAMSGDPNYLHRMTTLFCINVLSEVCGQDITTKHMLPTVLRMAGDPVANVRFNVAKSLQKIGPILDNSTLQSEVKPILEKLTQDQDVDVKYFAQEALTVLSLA
T2 sequence (P63331 whole entry): as the sequence (P63331 whole entry) above
T2 sequence (P56932 whole entry partner): as the sequence (P56932 whole entry partner) above
T2 sequence (Q5XI34 1-589 partner): as the sequence (Q5XI34 1-589 partner) above
ChREBP (Carbohydrate Response Element Binding Protein) from rat liver (rat), sequence (Q8VIP2 whole entry): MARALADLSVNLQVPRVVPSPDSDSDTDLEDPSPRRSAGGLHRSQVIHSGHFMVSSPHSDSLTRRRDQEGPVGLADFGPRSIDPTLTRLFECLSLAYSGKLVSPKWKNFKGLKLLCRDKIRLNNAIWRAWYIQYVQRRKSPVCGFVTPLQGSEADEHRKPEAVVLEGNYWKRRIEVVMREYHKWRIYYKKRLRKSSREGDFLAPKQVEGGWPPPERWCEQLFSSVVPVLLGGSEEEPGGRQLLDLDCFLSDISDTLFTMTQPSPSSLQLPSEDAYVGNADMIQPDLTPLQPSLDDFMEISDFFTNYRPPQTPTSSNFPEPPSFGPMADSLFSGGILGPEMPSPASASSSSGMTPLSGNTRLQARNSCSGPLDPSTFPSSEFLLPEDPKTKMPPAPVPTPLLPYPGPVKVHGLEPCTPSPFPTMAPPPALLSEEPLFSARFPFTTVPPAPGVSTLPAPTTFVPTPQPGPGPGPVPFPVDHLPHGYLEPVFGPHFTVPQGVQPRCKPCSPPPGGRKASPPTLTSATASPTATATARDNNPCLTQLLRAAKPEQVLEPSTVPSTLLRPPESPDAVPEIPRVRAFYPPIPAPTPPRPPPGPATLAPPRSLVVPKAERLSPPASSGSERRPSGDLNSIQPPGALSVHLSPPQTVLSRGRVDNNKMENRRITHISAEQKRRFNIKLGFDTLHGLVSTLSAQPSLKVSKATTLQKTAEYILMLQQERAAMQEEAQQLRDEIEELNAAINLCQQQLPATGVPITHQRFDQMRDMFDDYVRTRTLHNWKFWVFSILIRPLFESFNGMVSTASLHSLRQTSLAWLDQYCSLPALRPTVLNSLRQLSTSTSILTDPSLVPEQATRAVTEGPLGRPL

- inhibition of glucose activation of L-PK gene transcription (L-PK gene [1]; AICAR 50 μM): approximately 80%
- inhibition of glucose activation of L-PK gene transcription (L-PK gene [1]; AICAR 200 μM): over 90%
Compound: NC(=O)c1ncn([C@@H]2O[C@H](COP(=O)(O)O)[C@@H](O)[C@H]2O)c1N [AICAR, 5-amino-4-imidazolecarboxamide ribotide]

Compound: O=c1c(-c2ccc(O)cc2)coc2cc(O)cc(O)c12 [Genistein]
- transcriptional activity of the L-PK gene in ChREBP-overexpressed hepatocytes (L-PK gene [2]): did not affect

Compound: O=S(=O)(NCCNC/C=C/c1ccc(Br)cc1)c1cccc2cnccc12 [H-89]
- effect on endogenous ChREBP (L-PK transcriptional activity) (L-PK gene [2]; 10 μM H-89, hepatocytes without ChREBP overexpression): stimulated
- transcriptional activity of the L-PK gene in ChREBP-overexpressed hepatocytes (L-PK gene [2]): increased
- nuclear staining rate of GFP-fused ChREBP (GFP-fused ChREBP; 5.5 mM glucose, 10 μM H-89): increased

Compound: CN([C@@H](Cc1ccc(OS(=O)(=O)c2cccc3cnccc23)cc1)C(=O)N1CCN(c2ccccc2)CC1)S(=O)(=O)c1cccc2cnccc12 [KN-62]
- transcriptional activity of the L-PK gene in ChREBP-overexpressed hepatocytes (L-PK gene [2]): did not affect

Compound: COc1cccc(-c2cc(=O)c3ccccc3o2)c1N [PD98059]
- transcriptional activity of the L-PK gene in ChREBP-overexpressed hepatocytes (L-PK gene [2]): did not affect

- extent of activation of nuclear PPase by Xu-5-P [3, 9]: 1.8 fold
- activation of nuclear PPase, P3 peptide substrate ([3]; crude nuclear extract, added Xu-5-P): activated
- activation of nuclear PPase, P4 peptide substrate ([3]; nuclear extract): activated
- extent of activation of cytosolic PPase by Xu-5-P [4, 9]: 1.8 fold
- activation of P1 dephosphorylation by PPase of desalted cytosolic liver extract ([4]; only metabolite among glycolysis and pentose shunt intermediates examined): able to activate
Compound: O=C(CO)[C@@H](O)[C@H](O)COP(=O)(O)O [Xu-5-P]

Compound: CC(=O)O [acetate]
- AMP (cultured hepatocytes): 910 ± 87 nmol/g cells

Compound: CC1(C(=O)O)C2CCC(O2)C1(C)C(=O)O (centres unmarked) [cantharidic acid]
- transcriptional activity of the L-PK gene in ChREBP-overexpressed hepatocytes (L-PK gene [2]): inhibited
- inhibition of nuclear PPase (in words) [3]: completely inhibited
- nuclear staining rate of GFP-fused ChREBP (GFP-fused ChREBP; 500 nM cantharidic acid, 5.5 or 27.5 mM glucose): significantly decreased
- inhibition of cytosolic Xu-5-P activated PPase (in words) [4]: completely

Compound: CC1(C)[C@H](C(=O)O[C@H](C#N)c2cccc(Oc3ccccc3)c2)[C@@H]1C=C(Br)Br [deltamethrin]
- inhibition of nuclear PPase (in words) [3]: not affected
- inhibition of cytosolic Xu-5-P activated PPase (in words) [4]: did not affect

- Nuclear PPase activity, +Xu5P ([3]; 50 μM Xu-5-P): 0.93 units/mg
- Nuclear PPase activity, None [3]: 0.55 units/mg
- Cytosol. PPase activity, +Xu5P ([4]; 50 μM Xu-5-P): 11.2 units/mg
- Cytosol. PPase activity, None [4]: 6.2 units/mg
Compound: P1 peptide: synthetic peptide, amino acids #187-201 of ChREBP, YYKKRLRKSSREGDF, phosphorylated by PKA (also: phosphorylated by PKA, site not given here)

- Nuclear PPase activity, +Xu5P ([3]; 50 μM Xu-5-P): 0.94 units/mg
- Nuclear PPase activity, None [3]: 0.52 units/mg
- Cytosol. PPase activity, +Xu5P ([4]; 50 μM Xu-5-P): 11.0 units/mg
- Cytosol. PPase activity, None [4]: 6.0 units/mg
Compound: P3 peptide: synthetic peptide, amino acids #655-674 of ChREBP, VDNNKMENRRITHISAEQKR, phosphorylated by PKA (also: phosphorylated by PKA, site not given here)

- reduction in DNA-binding activity of ChREBP after phosphorylation (gel shift) [5]: 90%
Compound: catalytic subunit of cAMP-dependent protein kinase (PKA) (enzyme)

Compound: cytosolic Xu-5-P activated PPase (Mono Q purified, rat liver)
- PPase activity (units/mg), +Xu5P (50 µM) [6]: 11 units/mg
- PPase activity (units/mg), no Xu-5-P [6]: 6 units/mg
- PPase activity (units/mg), +Xu5P (50 µM) [7]: 11.2 units/mg
- PPase activity (units/mg), no Xu-5-P [7]: 6.2 units/mg
- PPase activity (units/mg), +Xu5P (50 µM) [8]: 8.8 units/mg
- PPase activity (units/mg), no Xu-5-P [8]: 5.2 units/mg

Compound: nuclear Xu-5-P activated PPase (Mono Q purified, rat liver)
- PPase activity (units/mg), +Xu5P (50 µM) [6]: 0.94 units/mg
- PPase activity (units/mg), no Xu-5-P [6]: 0.52 units/mg
- PPase activity (units/mg), +Xu5P (50 µM) [7]: 0.93 units/mg
- PPase activity (units/mg), no Xu-5-P [7]: 0.55 units/mg
- PPase activity (units/mg), +Xu5P (50 µM) [8]: 0.67 units/mg
- PPase activity (units/mg), no Xu-5-P [8]: 0.39 units/mg
